In patent US20090149339A1 (published 2009):
Ends that are not written are not given here. * marks the point of attachment. Biotin = O=C1N[C@H]2[C@H](CS[C@H]2CCCCC(=O)*)N1

Legend:
[1] = biological target: T1, GST-MPP2 PDZ domain fusion protein (maguk p55 subfamily member 2 (DLG2) AA185-273; PDZ domain 1 of 1) (UniProt P08515 1-218 = GST); test: G assay
T1 construct: also called MMP2

[2] = biological target: T2, GST-SYN1a PDZ domain fusion protein (alpha1-syntrophin AA96-189; PDZ domain 1 of 1) (UniProt P08515 1-218 = GST); test: G assay
T2 construct: also called SYN 1 alpha; SYNTR 1 alpha

[3] = biological target: T3, GST-TAX2 PDZ domain fusion protein (human tax interaction protein 2 AA54-140; PDZ domain 1 of 1) (human, UniProt P08515 1-218 = GST); test: A assay
T3 construct: also called TX 2

[4] = biological target: T4, GST-MPP1 PDZ domain fusion protein (55 Kd erythrocyte membrane protein AA101-186; PDZ domain 1 of 1) (UniProt P08515 1-218 = GST); test: A assay
[5] = biological target: T5, GST-TAX43 PDZ domain fusion protein (human tax interaction protein 43 AA15-85; PDZ domain 1 of 1) (human, UniProt P08515 1-218 = GST); test: A assay
T5 construct: also called TX 43

[6] = biological target: T6, GST-DVL1 PDZ domain fusion protein (human dishevelled segment polarity protein homolog AA248-340); PDZ domain … (human, UniProt P08515 1-218 = GST); test: A assay
[7] = biological target: T7, GST-RGS12 PDZ domain fusion protein (human regulator of G-protein signalling 12 AA35-103; PDZ domain 1 of 1) (human, UniProt P08515 1-218 = GST); test: A and G assays
T7 construct: also called RSG12

[8] = biological target: T8, GST-41.8 kD PDZ domain fusion protein (hypothetical 41.8 kD protein AA4-85; PDZ domain 1 of 1) (UniProt P08515 1-218 = GST); test: A and G assays
T8 construct: also called hypoth

[9] = biological target: T9, GST-NeDLG PDZ domain fusion protein (presynaptic protein sao102, neuroendocrine-dlg; PDZ domains 1-2 of 3) (UniProt P08515 1-218 = GST); test: A and G assays
T9 construct: also called NeDLG1

[10] = biological target: T10, GST-PTN-4 PDZ domain fusion protein (protein-tyrosine phosphatase meg1 AA774-862; PDZ domain 1 of 1) (UniProt P08515 1-218 = GST); test: A and G assays
[11] = biological target: T11, GST-PSD95 PDZ domain fusion protein (human post-synaptic density protein 95 AA387-724; PDZ domains 1-3 of 3) (human, UniProt P08515 1-218 = GST); test: A and G assays
[12] = biological target: T12, GST-KIAA0316 PDZ domain fusion protein (KIAA0316 AA197-284; PDZ domain 1 of 1) (UniProt P08515 1-218 = GST); test: A/G assays
T12 construct: also called K316

[13] = biological target: GST-LIM PDZ domain fusion protein (Human LIM protein AA29-112; PDZ domain 1 of 1) (human, UniProt P08515 1-218 = GST); test: A/G assays
[14] = biological target: T13, GST-AF6 PDZ domain fusion protein (af-6 protein AA985-1077; PDZ domain 1 of 1) (UniProt P08515 1-218 = GST); test: A/G assays
[15] = biological target: GST-LIMK2 PDZ domain fusion protein (human LIM domain kinase 2 AA185-275; PDZ domain 1 of 1) (human, UniProt P08515 1-218 = GST); test: A/G assays
[16] = biological target: T14, GST-CBP PDZ domain fusion protein (Cytohesin binding protein HE AA85-175; PDZ domain 1 of 1) (UniProt P08515 1-218 = GST); test: A/G assays
T14 construct: also called Prot

[17] = biological target: T15, GST-TAX40 PDZ domain fusion protein (human tax interaction protein 40 AA35-137; PDZ domain 1 of 1) (human, UniProt P08515 1-218 = GST); test: A/G assays
T15 construct: also called TX 40

[18] = biological target: T16, GST-KIAA0303 PDZ domain fusion protein (KIAA0303 AA652-742; PDZ domain 1 of 1) (UniProt P08515 1-218 = GST); test: A/G assays
T16 construct: also called K303

[19] = biological target: T17, GST-KIAA0559 PDZ domain fusion protein (KIAA0559 AA766-870; PDZ1 of 1) (UniProt P08515 1-218 = GST); test: A/G assays
T17 construct: also called K559

[20] = biological target: GST-prIL16 PDZ domain fusion protein (putative interleukin 16 precursor AA170-383; PDZ domains 1-2 of 2) (UniProt P08515 1-218 = GST); test: A/G assays
[21] = biological target: GST-MINT3 PDZ domain fusion protein (human MINT3 AA11-52; PDZ domain 1 of 1) (human, UniProt P08515 1-218 = GST); test: A/G assays
[22] = biological target: GST-TIAM1 PDZ domain fusion protein (T-lymphoma invasion and metastasis inducing protein 1 AA1001-1088); PDZ 1 … (UniProt P08515 1-218 = GST); test: A/G assays
[23] = biological target: T18, GST-TAX33 PDZ domain fusion protein (tax interaction protein 33 AA73-162; PDZ domain 1 of 1) (UniProt P08515 1-218 = GST); test: A/G assays
T18 construct: also called TX33

[24] = biological target: GST-NOS1 PDZ domain fusion protein (human neuronal nitric oxide synthase; PDZ domain 1 of 1) (human, UniProt P08515 1-218 = GST); test: A/G assays
[25] = biological target: T19, GST-CASK PDZ domain fusion protein (CASK AA495-584; PDZ domain 1 of 1) (mouse, UniProt P08515 1-218 = GST); test: A/G assays
T19 construct: also called mCASK

[26] = biological target: T9, GST-NeDLG PDZ domain fusion protein …; test: G assay
[27] = biological target: T11, GST-PSD95 PDZ domain fusion protein …; test: G assay
[28] = biological target: T13, GST-AF6 PDZ domain fusion protein (af-6 …); test: A assay
[29] = biological target: T1, GST-MPP2 PDZ domain fusion protein …; test: A assay
[30] = biological target: T8, GST-41.8 kD PDZ domain fusion protein …; test: A assay
[31] = biological target: T4, GST-MPP1 PDZ domain fusion protein (55 …); test: A/G assays
[32] = biological target: T7, GST-RGS12 PDZ domain fusion protein …; test: A/G assays
[33] = biological target: T3, GST-TAX2 PDZ domain fusion protein …; test: A/G assays
[34] = biological target: T2, GST-SYN1a PDZ domain fusion protein …; test: A/G assays
[35] = biological target: T5, GST-TAX43 PDZ domain fusion protein …; test: A/G assays
[36] = biological target: T10, GST-PTN-4 PDZ domain fusion protein …; test: A/G assays
[37] = biological target: T6, GST-DVL1 PDZ domain fusion protein …; test: A/G assays

GST-LIMK2 PDZ domain fusion protein (human LIM domain kinase 2 AA185-275; PDZ domain 1 of 1), sequence (P08515 1-218, tags or fused parts left off): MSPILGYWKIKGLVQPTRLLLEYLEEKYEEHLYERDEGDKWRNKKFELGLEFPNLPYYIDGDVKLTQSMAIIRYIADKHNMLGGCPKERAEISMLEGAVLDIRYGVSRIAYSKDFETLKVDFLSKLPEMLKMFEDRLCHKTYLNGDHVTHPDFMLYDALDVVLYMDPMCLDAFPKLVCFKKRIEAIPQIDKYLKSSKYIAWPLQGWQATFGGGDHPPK
T6 sequence (P08515 1-218, tags or fused parts left off): as above
GST-TIAM1 PDZ domain fusion protein (T-lymphoma invasion and metastasis inducing protein 1 AA1001-1088); PDZ 1 …, sequence (P08515 1-218, tags or fused parts left off): as above
T18 sequence (P08515 1-218, tags or fused parts left off): as above
GST-LIM PDZ domain fusion protein (Human LIM protein AA29-112; PDZ domain 1 of 1), sequence (P08515 1-218, tags or fused parts left off): as above
T7 sequence (P08515 1-218, tags or fused parts left off): as above
GST-MINT3 PDZ domain fusion protein (human MINT3 AA11-52; PDZ domain 1 of 1), sequence (P08515 1-218, tags or fused parts left off): as above
GST-NOS1 PDZ domain fusion protein (human neuronal nitric oxide synthase; PDZ domain 1 of 1), sequence (P08515 1-218, tags or fused parts left off): as above
T5 sequence (P08515 1-218, tags or fused parts left off): as above
T15 sequence (P08515 1-218, tags or fused parts left off): as above
T19 sequence (P08515 1-218, tags or fused parts left off): as above
GST-prIL16 PDZ domain fusion protein (putative interleukin 16 precursor AA170-383; PDZ domains 1-2 of 2), sequence (P08515 1-218, tags or fused parts left off): as above
T3 sequence (P08515 1-218, tags or fused parts left off): as above
T1 sequence (P08515 1-218, tags or fused parts left off): as above
T12 sequence (P08515 1-218, tags or fused parts left off): as above
T11 sequence (P08515 1-218, tags or fused parts left off): as above
T14 sequence (P08515 1-218, tags or fused parts left off): as above
T13 sequence (P08515 1-218, tags or fused parts left off): as above
T10 sequence (P08515 1-218, tags or fused parts left off): as above
T17 sequence (P08515 1-218, tags or fused parts left off): as above
T2 sequence (P08515 1-218, tags or fused parts left off): as above

Binder	binding result [12]	binding result [13]	binding result [15]	binding result [16]	binding result [17]	binding result [18]	binding result [19]	binding result [20]	binding result [21]	binding result [22]	binding result [23]	binding result [24]	binding result [25]	other results
Biotin-LNSCSNRRVYKKMPSIESDV [NMDA C-terminal PL peptide AA34.2L, biotinylated]	no binding	no binding	no binding	no binding	no binding	no binding	no binding	no binding	no binding	no binding	no binding	no binding	no binding	binding result [1]: binds; binding result [2]: binds; binding result [3]: binds; binding result [4]: binds; binding result [5]: binds; binding result [6]: binds; binding result [7]: binds; binding result [8]: binds; binding result [9]: binds; binding result [10]: binds; binding result [11]: binds; binding result [14]: no binding
Biotin-QGDPALQDAGDSSRKEYFI (also called GC) [Glycophorin C C-terminal PL peptide AA37L, biotinylated]	no binding	no binding	no binding	no binding	no binding	no binding	no binding	no binding	no binding	no binding	no binding	no binding	no binding	binding result [26]: binds; binding result [27]: binds; binding result [28]: binds; binding result [29]: binds; binding result [30]: binds; binding result [31]: no binding; binding result [32]: no binding; binding result [33]: no binding; binding result [34]: no binding; binding result [35]: no binding; binding result [36]: no binding; binding result [37]: no binding
